# Reference: patent publication US20230053258
# Biological target: recombinant human insulin (UniProt P01308)
# Sequence (P01308 whole entry, looked up): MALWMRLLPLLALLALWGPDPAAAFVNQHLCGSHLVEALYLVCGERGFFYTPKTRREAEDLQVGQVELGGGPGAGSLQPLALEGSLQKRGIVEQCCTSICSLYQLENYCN
row,Substance,insulin degradation (residual insulin by ELISA)
1,"recombinant human IDE, inactive mutant E111Q",the mutated IDE degraded only 15% of the insulin under the same conditions
2,recombinant human wild type insulin degrading enzyme (WT rhIDE),~60% degradation following 2 hours at 37 °C
